Assay [1] deals with Boxer virus (BV, GI.8) P domain, wild type, as P particle (Boxer virus (human norovirus GI.8)). Nature of the assay: SEC; gel filtration on Superdex 200 followed by SDS-PAGE; P particles form a peak at 830 kDa. In general terms: In gel filtration, larger molecules generally elute earlier.
The target in assay [2] is Boxer virus (BV, GI.8) VP1 P domain, Q227-L526 (P dimer) (Boxer virus (human norovirus GI.8)). Nature of the assay: crystal structure; P protein at 10 mg/mL (native) or 14 mg/mL with Le^b or Le^y tetrasaccharide, hanging drop, 0.1 mol/L LiCl, 18% PEG 3350, 10% MPD, 16°C; space group P6_(1), two protomers in the asymmetric unit.

The values that follow come from article PMC4312760.

Usually stoichiometry N stands for the number of molecules, sites or subunits per partner or assembly.

On to “Boxer virus (BV, GI.8) P domain, wild type, as P particle (domain or fragment)”, for which the efficiency of P particle formation in assay [1] amounted to 80%. On to “Boxer virus (BV, GI.8) VP1 P domain, Q227-L526 (P dimer) (domain or fragment)”, for which the stoichiometry N in assay [2] amounted to 2.
